Results: patent publication US20200040088A1 (Kyowa Kirin, published 2020)

Experiments:
[1] = molecular target: T1, mouse IL-5Rα expressed on cells (Ba/F3 cells stably expressing mouse IL-5Rα); Expi293F cells transiently … (mouse, UniProt P21183 18-415); experiment: flow cytometry on mouse IL-5Rα-expressing Ba/F3 cells, detected with Alexa Fluor 647 goat anti-mouse IgG (H+L), geometric mean fluorescence; parental Ba/F3 cells as negative control
T1 construct: whole, on cells; also called IL-5Rα-expressing Ba/F3 cells; IL5Ra-expressing Ba/F3 cells
T1 sequence (looked up): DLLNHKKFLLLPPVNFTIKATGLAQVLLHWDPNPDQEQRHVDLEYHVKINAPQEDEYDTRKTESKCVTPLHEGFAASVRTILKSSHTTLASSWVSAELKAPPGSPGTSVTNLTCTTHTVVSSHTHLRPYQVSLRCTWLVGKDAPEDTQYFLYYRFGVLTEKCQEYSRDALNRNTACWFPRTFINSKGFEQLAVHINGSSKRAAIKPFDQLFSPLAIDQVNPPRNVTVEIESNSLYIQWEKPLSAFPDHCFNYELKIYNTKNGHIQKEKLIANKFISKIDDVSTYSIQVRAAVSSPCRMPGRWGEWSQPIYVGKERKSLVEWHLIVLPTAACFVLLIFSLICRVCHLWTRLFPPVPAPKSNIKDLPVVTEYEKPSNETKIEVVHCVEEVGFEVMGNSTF
Experimental: Ba/F3 cells or IL-5Rα-expressing Ba/F3 cells were suspended at a cell density of 1×10⁶ cells/mL in FACS buffer 1. The cell suspension was inoculated at 100 μL/well ([…]) to a 96-well U-form plate. The cm1B12 antibody was diluted into final concentrations of 0.0003, 0.001, 0.003, 0.01, 0.03, 0.1, 0.3, 1, 3, and 10 μg/mL with FACS buffer 1, added at 100 μL/well, and reacted for 1 hour on ice. After washing with FACS buffer 1, Alexa Fluor® 647 Goat anti-mouse IgG (H+L) (Life Technologies Corp.) diluted into 5 μg/mL with FACS buffer 1 was added at 100 μL/well and reacted for 1 hour on ice. After washing with FACS buffer 1, the fluorescence intensity (geometric mean) was measured using a flow cytometer Canto II (Becton, Dickinson and Company).

[2] = molecular target: T2, Mouse IL-5Rα-Fc (R&D Systems Inc.) (mouse, UniProt P21183 18-339); experiment: SPR, Biacore T200; mouse IL-5Rα-Fc captured on anti-human IgG (Fc); cm1B12 as analyte; bivalent analyte model
T2 construct: Bought reagent; not shown: Fc part
T2 sequence (looked up): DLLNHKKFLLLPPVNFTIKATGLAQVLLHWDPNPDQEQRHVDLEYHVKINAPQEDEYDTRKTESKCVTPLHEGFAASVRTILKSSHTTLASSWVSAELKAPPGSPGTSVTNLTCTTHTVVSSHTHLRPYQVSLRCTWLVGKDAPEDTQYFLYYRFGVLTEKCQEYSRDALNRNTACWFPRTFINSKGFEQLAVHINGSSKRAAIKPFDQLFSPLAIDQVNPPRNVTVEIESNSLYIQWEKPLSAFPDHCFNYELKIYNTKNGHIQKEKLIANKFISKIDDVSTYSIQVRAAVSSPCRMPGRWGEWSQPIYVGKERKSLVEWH
Experimental: The binding activity of the cm1B12 antibody to mouse IL-5Rα-Fc was analyzed using Biacore T200. Anti-Human IgG (Fc) was immobilized at about 9000 RU onto CM5 sensor chip (GE Healthcare) using Human Antibody Capture Kit (GE Healthcare) according to the attached instruction. Mouse IL-5Rα-Fc (R&D Systems Inc.) dissolved at 1 μg/mL in HBS-EP(+) was captured as a ligand at a flow rate of 30 μL/min for 20 seconds. Then, the cm1B12 antibody serially diluted into concentrations of 1000.00, 333.33, 111.11, 37.04, 12.35, and 4.12 ng/mL was added thereto as an analyte by the multicycle method.
The operation was performed under conditions involving a flow rate of 30 μL/min, and a contact time and a dissociation time of 120 seconds and 600 seconds, respectively. The analysis was carried out using Biacore T200 Evaluation software in the Surface bound and Bivalent Analyte mode.

EC50 (read off the curve) [1]: ~0.05 µg/mL
Kd [2]: 0.0317 nM
koff [2]: 0.000126 s⁻¹
kon [2]: 4.1e+06 M⁻¹ s⁻¹
B1: rat/mouse chimera type 1B12 antibody (antibody, V domains shown)
VH: VQLVESDGGLVQPGRSLKLSCAASGFTFSDFYMAWVRQAPTKGLEWVATISYDGSSAYYRDSVKGRFTISRDNAKSTLYLQMDSLSSEDTATYYCARHDGYYPFDYWGQGVMVTVSS
VL: DIRMTQSPASLSASLGETVNIECLASEDIYSDLAWYQQKPGKSPQLLIYDANSLQNGVPSRFSGSGSGTQYSLKINSLQSEDVATYFCQQYNNYWTFGGGTKLELK
notes: also called cm1B12 antibody; cm1B12
